The text below walks through data of US4959351A, “Crystal suspensions of insulin derivatives, processes for their preparation and their use” (Hoescht Aktiengesellschaft, priority 1983, dated 1990).

The nature of this data set: Specific biological activity of the insulin substance used (I.U./mg). To be noted: as stated in the composition.

Substance “Porcine insulin--Arg^B31 --Arg^B32 --OH [Insulin-Arg^B31 -Arg^B32 -OH from pigs]” displayed a specific activity of 27.0 I.U./mg.

In the case of human insulin--Arg^B31 --Arg^B32 --OH, the specific activity is 27.0 I.U./mg.

Substance “human insulin-B30-choline ester [human insulin-(B30)-choline ester]” registered a specific activity of 28.0 I.U./mg.

On to “human insulin--Arg^B31 --OH [Human insulin-Arg^B31 -OH]”, for which the specific activity amounted to 27.5 I.U./mg.

Regarding “human insulin--Arg^B31 -Lys--^B32 --OCH3 [Human insulin-Arg^B31 -Lys^B31 -OCH3]”, the specific activity worked out at 27.0 I.U./mg.
